Read-outs that look alike come from different tables or passages of the source.
Experiments:
Assay in all cases: enzyme inhibition kinetics
[1] = biological target: human LSD1-CoREST complex (LSD1 residues 171-836 with CoREST residues 308-440) (human) (UniProt O60341)
[2] = biological target: human LSD1-CoREST complex (LSD1 residues 171-836 with CoREST residues 308-440) (human) (UniProt O60341); remark: listed apart in the source
[3] = biological target: human LSD1-CoREST complex (LSD1 residues 171-836 with CoREST residues 308-440) (human) (UniProt O60341); remark: listed apart in the source
[4] = biological target: recombinant mouse LSD2 (mouse) (UniProt Q8CIG3)

Ki [1]: 220 µM
Ki [2]: 0.2 µM
Ki [3]: 210 µM
Ki [4]: 2.22 µM
Substance: 20-residue peptide corresponding to the N-terminal residues of human SNAIL1

Source: paper PMC3059804
